This passage reports EC50 and AUC results from US20240109974A1 (SHANDONG SIMCERE BIOPHARMACEUTICAL, published 2024).

To fix the notation:
T1: human TNFR2 on the surface of CHO-TNFR2 cells (human, UniProt P20333 23-461)
T1 construct: whole, on cells
T1 sequence (looked up): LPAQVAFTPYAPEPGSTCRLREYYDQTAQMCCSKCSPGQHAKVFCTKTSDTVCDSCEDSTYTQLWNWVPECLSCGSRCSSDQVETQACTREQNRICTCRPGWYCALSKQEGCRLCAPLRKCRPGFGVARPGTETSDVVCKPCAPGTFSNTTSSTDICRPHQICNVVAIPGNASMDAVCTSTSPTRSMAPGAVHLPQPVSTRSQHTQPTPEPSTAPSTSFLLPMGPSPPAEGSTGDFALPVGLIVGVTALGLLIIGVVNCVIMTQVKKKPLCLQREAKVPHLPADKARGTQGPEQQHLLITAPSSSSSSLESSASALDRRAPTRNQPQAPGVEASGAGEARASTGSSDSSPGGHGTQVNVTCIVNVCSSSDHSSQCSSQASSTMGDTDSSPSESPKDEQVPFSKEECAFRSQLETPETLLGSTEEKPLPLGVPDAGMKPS

T2: human TNFR2 (Novoprotein, Cat #C830) (human, UniProt P20333 23-257, limits assumed)
T2 construct: construct not described; also called human TNFR2 protein
T2 sequence (looked up): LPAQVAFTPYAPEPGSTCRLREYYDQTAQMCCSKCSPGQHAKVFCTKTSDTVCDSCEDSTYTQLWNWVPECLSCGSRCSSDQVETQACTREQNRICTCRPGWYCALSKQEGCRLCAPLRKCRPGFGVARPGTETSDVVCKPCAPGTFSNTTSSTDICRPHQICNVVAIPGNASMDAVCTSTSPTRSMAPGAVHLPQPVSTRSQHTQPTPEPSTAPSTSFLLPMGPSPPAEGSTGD

B1: 224-WT (antibody, V domains shown)
VH: EVQLQESGPEIVKPGASVKLSCTASGFNNKDIYMHWVKQRPEQGLEWIGRIDPATGNTKHDPKFQDKATLSSDTSSNTAYLQFSSLTSEDTAVYYCAHSPYGDFGAMDYWGQGTTVTVSS
VL: DIQMTQSPAIMSASLGERVTMTCTASSSVSSNYLHWYQQKPGSSPKLWIYSTSNLPSGVPARFSGSGSGTSYSLTISSMEAEDAATYYCHQYHRSPWTFGGGTKLEIK
notes: Human-murine chimeric wild-type molecule; also called human-murine chimeric antibody WT of #224
B2: 219-WT (antibody, V domains shown)
VH: EVQLQESGAELVRPGASVKLSCKASGYSFTNYWMNWVKQRPGQGLEWIGMIHPSDTETRLNQNFKDKATLTVDKSSSTSYMQLSSPTSEDSAVYYCARGEGLGAARSVSMDYWGQGTTVTVSS
VL: DILMTQSPSSLSASLGDRVTISCRASQDISNYLNWYQQKPDGTVKVLIYYTAILHSGVPSRFSGSGSGTDYSLTISNLEQEDIATYFCQQGNTLPWTFGGGTKLEIK
notes: Human-murine chimeric wild-type molecule
B3: 219-Hu3 (antibody, V domains shown)
VH: QVQLVQSGAEVKKPGSSVKVSCKASGYSFTNYWMNWVRQAPGQGLEWMGMIHPSDTETRLNQNFKDRVTITADKSTSTAYMELSSLRSEDTAVYYCARGEGLGAARSVSMDYWGQGTLVTVSS
VL: B2 VL with L3Q, L15V, S22T, V46L, N77S, E79Q, Q80P, I83F, G100Q, L104V
notes: also called VH5 + VL5
B4: 219-Hu2 (antibody, V domains shown)
VH: B3 VH with R67K, V68A
VL: B2 VL with L3Q, L15V, S22T, V46L, N77S, E79Q, Q80P, I83F, G100Q, L104V
notes: also called VH4 + VL5
B5: 219-Hu1 (antibody, V domains shown)
VH: B3 VH with S16A, G44R, A72R, K74T, T76A
VL: B2 VL with L3Q, L15V, S22T, V46L, N77S, E79Q, Q80P, I83F, G100Q, L104V
notes: also called VH3 + VL5
B6: 219-Hu4 (antibody, V domains shown)
VH: B3 VH with R38K, M48I, R67K, V68A, I70L, A72V
VL: B2 VL with L3Q, L15V, S22T, V46L, N77S, E79Q, Q80P, I83F, G100Q, L104V
notes: also called VH6 + VL5
B7: 219-Hu5 (antibody, V domains shown)
VH: B3 VH with A72V
VL: B2 VL with L3Q, L15V, S22T, V46L, N77S, E79Q, Q80P, I83F, G100Q, L104V
notes: also called VH7 + VL5
B8: 001-WT (antibody, V domains shown)
VH: EVQLQESGGGLVQPGGSLNLSCAASGFAFSTYDLSWVRQTPEKRLEWVAYINNGGISTYYSDTVKGRFTISRDNAKNTLYLQMSSLKSEDTAMYYCVRGPFYGSANYFDYWGQGTTVTVSS
VL: EIVMTQSPASLSLSVGETVTITCRTSESIYSNLPWYQQKQGKSPQLLVYDATKLAEGVPSRFSGSESGTQYSLKINSLQSEDFGTYYCQHFWVTPWTFGGGTKLEIK
notes: Human-murine chimeric wild-type molecule; also called human-murine chimeric antibody WT of #001
B9: 001-Hu5 (antibody, V domains shown)
VH: B8 VH with Q5V, N19R, T40A, E42G, R44G, S84N, K87R, S88A, M93V, T116L
VL: DIQMTQSPSSLSASVGDRVTITCRTSESIYSNLPWYQQKPGKSPKLLVYDATKLAEGVPSRFSGSGSGTDYTLTISSLQPEDFATYYCQHFWVTPWTFGQGTKVEIK
notes: Humanized form of #001; also called VH1 + VL4
B10: 001-Hu1 (antibody, V domains shown)
VH: B8 VH with Q5V, N19R, T40A, E42G, R44G, S84N, K87R, S88A, M93V, T116L
VL: B9 VL with S43A, V48L
notes: Humanized form of #001; also called VH1 + VL1
B11: 001-Hu4 (antibody, V domains shown)
VH: EVQLVESGGGLVQPGGSLRLSCAASGFAFSTYDLSWVRQAPGKGLEWVAYINNGGISTYYSDTVKGRFTISRDNAKNSLYLQMNSLRAEDTAVYYCVRGPFYGSANYFDYWGQGTLVTVSS
VL: B9 VL
notes: Humanized form of #001; also called VH2 + VL4
B12: 001-Hu2 (antibody, V domains shown)
VH: B11 VH
VL: B9 VL with V48I, Y71F
notes: Humanized form of #001; also called VH2 + VL2
B13: 001-Hu3 (antibody, V domains shown)
VH: B11 VH with S78T
VL: B9 VL with S43A, V48I
notes: Humanized form of #001; also called VH1 + VL3
B14: 224-Hu1 (antibody, V domains shown)
VH: QVQLVQSGAEVKKPGASVKVSCKASGFNNKDIYMHWVRQAPGQGLEWIGRIDPATGNTKHDPKFQDRVTMTSDTSTNTVYMELSSLRSEDTAVYYCARSPYGDFGAMDYWGQGTLVTVSS
VL: DIQMTQSPSSLSASVGDRVTITCTASSSVSSNYLHWYQQKPGKAPKLWIYSTSNLPSGVPSRFSGSGSGTDFTLTISSLQPEDFATYYCHQYHRSPWTFGQGTKVEIK
notes: Humanized form of #224; also called VH8 + VL6
B15: 224-Hu7 (antibody, V domains shown)
VH: QVQLVQSGSELKKPGASVKVSCKASGFNNKDIYMHWVRQAPGQGLEWMGRIDPATGNTKHDPKFQDKAVLSSDTSVSTAYLQISSLKAEDTAVYYCARSPYGDFGAMDYWGQGTLVTVSS
VL: B14 VL with W48L
notes: Humanized form of #224; also called VH9 + VL10
B16: 224-Hu6 (antibody, V domains shown)
VH: B14 VH
VL: B14 VL with K43S, A44S
notes: Humanized form of #224; also called VH8 + VL7
B17: 224-Hu2 (antibody, V domains shown)
VH: B15 VH
VL: B14 VL with K43S, A44S
notes: Humanized form of #224; also called VH9 + VL7
B18: 224-Hu3 (antibody, V domains shown)
VH: B15 VH
VL: B14 VL with W48L, P81A, F84A
notes: Humanized form of #224; also called VH9 + VL8
B19: 224-Hu4 (antibody, V domains shown)
VH: B15 VH
VL: B14 VL
notes: Humanized form of #224; also called VH9 + VL6
B20: 224-Hu5 (antibody, V domains shown)
VH: B15 VH
VL: B14 VL with W48L, F72Y, T73S
notes: Humanized form of #224; also called VH9 + VL9

Substitutions are numbered along the chain they refer to.

The target in the first assay is T1, human TNFR2 on the surface of CHO-TNFR2 …. The assay is described as follows: flow cytometry on CHO-TNFR2 cells. As for the experimental part: The transfected full-length plasmid of human TNFR2 was purchased from Sino Biological (Cat #HG10417-UT, NCBI Ref Seq: NM_001066.2). The experiment was conducted at a cell density within 80%. The cell medium was discarded; the cells were rinsed with PBS, and digested with 1 ml trypsin for 2 minutes; the digestion was stopped with a Ham's F12 complete medium containing 10% FBS, and then a cell suspension was made. The cell suspension was counted, and then an appropriate amount of cell suspension was centrifuged at 350×g; the supernatant was discarded; a corresponding volume of blocking solution (10% FBS+PBS) at a density of 1×10⁷ cells/ml was added to resuspend the cells, and the mixture was incubated at 4° C. for 30 minutes. After the incubation, the mixture was centrifuged at 350×g to remove the supernatant, and the cells were resuspended in a staining buffer (2% FBS+PBS) to a density of 2×10⁶ cells/ml, and spread onto a 96-well plate, with 50 μl of cell suspension added to each well for later use. The antibody was diluted with PBS for 10-fold gradient dilution from the highest concentration of 20 μg/m (twice the concentration); the diluted antibody was added to the well containing 50 μl of cell suspension, and placed on a microplate shaker for shaking at 500 rpm for 1 minute, so that the antibody was fully mixed with the cells; the mixture was incubated at 4° C. for 1 h. After the incubation, the cells were washed twice with the staining buffer, with 100 μl per well, and centrifuged at 350-g for 5 minutes, and the supernatant was discarded. The PE goat anti-Human IgG Fc antibody (ebioscience, Cat #12-4998-82) was diluted 250-fold with the staining buffer, with a volume of 100 μl per well added to the washed cell wells; the mixture was mixed evenly, and stained at 4° C. for 30 minutes. After the staining, similarly, the cells were washed twice with the staining buffer; finally, the cells were resuspended in 200 μl of staining buffer; signals were detected by a flow cytometer (Thermo Attune NxT). The stronger the signal, the stronger the binding ability of an antibody to TNFR2. The binding curve of an antibody was drawn with antibody concentration as the abscissa and corresponding mean fluorescence intensity (MFI) fold as the ordinate, and fitted with four parameters (GraphPad Prism9) to calculate the EC50 value.
What is called EC50 is the concentration that produces a half-maximal response. A lower EC50 goes with higher potency in that assay. Take B1: a half-maximal response (EC50) required 0.04 ng/mL.
Still for that read-out and setting: under B2 stands 0.026 ng/mL.
In the case of B3, the EC50 came to 0.018 ng/mL.
Take B4: it took 0.027 ng/mL to reach a half-maximal effect (EC50).
Molecule B5 returned an EC50 of 0.026 ng/mL.
Consider B6, for which the EC50 was 0.018 ng/mL.
For B7, a half-maximal response (EC50) required 0.018 ng/mL.
In the case of B8, the EC50 is 0.035 ng/mL.
The molecule B9 showed an EC50 of 0.029 ng/mL.
In the case of B10, the EC50 came out at 0.045 ng/mL.
In turn, B11 displayed an EC50 of 0.027 ng/mL.
B12 came in with a 50% effective concentration (EC50) of 0.073 ng/mL.
Molecule B13 displayed an EC50 of 0.035 ng/mL.
In the case of B14, the response was half-maximal at 0.04 ng/mL (EC50).
On the same count and under the same terms, under B15 stands 0.03 ng/mL; under B16, 0.03 ng/mL.
In turn, B17 registered an EC50 of 0.03 ng/mL.
Molecule B18 had an EC50 of 0.03 ng/mL.
As to B19, the 50% effective concentration (EC50) came out at 0.03 ng/mL.
B20 yielded an EC50 of 0.04 ng/mL.

The target in another assay is T2, human TNFR2 (Novoprotein, Cat #C830). The assay is described as follows: competition ELISA, competitor human TNFα-Biotin; area under the OD curve. The procedure: 1 μg/ml human TNFR2 (Novoprotein, Cat #C830) was pre-coated with 100 μl/well […] in an ELISA plate. All the test TNFR2 antibodies were subjected to 2.5-fold gradient dilution from the highest concentration of 30 μg/ml; the diluted antibodies were mixed with 15 ng/ml human TNFα-Biotin (Acro Biosystem, Cat #TNA-H82E3) in equal volume, respectively; the resulting mixture was added to the ELISA plate at 100 μl/well, and incubated with shaking at room temperature for 2.0 hours. The plate was washed, and then a Streptavidin-HRP working solution (diluted at 1:10000) was added at 100 μl/well, and the mixture was incubated with shaking at room temperature for 40 minutes. The plate was washed again, and then the substrate TMB of HRP was added to develop colour. A stop solution was added to stop the reaction, and then a microplate reader (MD 13) was used to read the absorbance value. The inhibitory curve of an antibody was drawn with antibody concentration as the abscissa and corresponding OD value as the ordinate, and fitted with four parameters (GraphPad Prism9) to calculate the IC50 value. The smaller the IC50 value, the stronger the ability of an antibody to inhibit the binding of human TNFα to human TNFR2. The blocking effect of a humanized antibody was normalized to its corresponding human-murine chimeric antibody WT. The higher the percentage value, the better the inhibitory effect of the humanized antibody.
The molecule B3 displayed an AUC of 8.16.
Regarding B4, the AUC was found to be 7.82.
In turn, B5 returned an AUC of 7.92.
Same read-out and setting: to B6 belongs 7.66; to B7, 7.96.
Consider B9, for which the AUC was 8.02.
On to B10, for which the AUC came to 7.63.
For the molecule B11, the AUC stood at 7.86.
Still for that read-out and setting: under B12 stands 8.1; under B13, 7.87.
Molecule B14 returned an AUC of 7.12.
Same read-out and setting: to B15 belongs 7.44; to B16, 6.46.
B17 yielded an AUC of 7.18.
The molecule B18 gave an AUC of 6.34.
For B19, the AUC stood at 6.25.
B20 registered an AUC of 6.87.
